In article PMC5727297:

Biological target: WT SOD1, purified from E. coli (human) (UniProt P00441)
Assay: NMR titration; 100 uM WT [U-15N]-apo-SOD1^SH in PBS pH 7.4 titrated with unlabelled CCS-D2 up to three equivalents, anaerobic, 298 K, 900 MHz

Sequence of UniProt P00441 (P00441 whole entry): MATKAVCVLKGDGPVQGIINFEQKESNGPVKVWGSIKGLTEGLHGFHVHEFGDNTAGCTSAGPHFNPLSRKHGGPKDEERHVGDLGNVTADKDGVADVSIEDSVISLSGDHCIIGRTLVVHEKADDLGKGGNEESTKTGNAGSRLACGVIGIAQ

- percent of apo-SOD1^SH still free with 1 equivalent of CCS-D2: 20%
Substance: CCS-D2, purified from E. coli (domain or fragment)
